# Experimental data taken from the nanobody polyreactivity screen of Harvey et al. (2022).
# Test: yeast display, Sf9 membrane polyspecificity reagent, FACS + sequencing; frameworks hold sequencing errors
# Method in brief: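 Nanobodies came from a synthetic yeast display library in Saccharomyces cerevisiae BJ5465, induced with galactose for 36–48 hours and stained for 1 hour at 4 °C with 10% biotinylated, detergent-solubilized Sf9 membrane reagent. Cells were enriched on streptavidin microbeads and then FACS-sorted, with low and high (top ~1%) gates set on anti-HA fluorescence for expression and streptavidin fluorescence for reagent binding. Each polyreactivity label reflects the gate a clone came from. Genes were amplified by colony PCR, sequenced by MiSeq 2 × 250 and filtered by CDR length.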
row,Sequence,polyreactivity (PSR sort gate)
1,QVQLVESGGGLVQAGGRLRLSCAASGRIFLPDGMGWYIQAAGKERELVATITIGGSSTYADSVKGRFTISRDNAKNTVNLQMNSLKPEHTAVYYCAVRRWVYYLHGYDYWGQGTQETVSS,low polyreactivity
2,QVQLVESGGGLVQAGGRLRLSCAASGRIFRRYAMGWYRQAPGKERELVAAITSSGTSTHYADSVKGRFTISRDNAKNTVYLQMNSLKPEDTAVYYCAARYSTYPWYNYCGQGTQVTVSS,high polyreactivity
3,QVQLVESGGGLVQAGGRLRLSCAASGRIFRYNAMGWYRQAPGKERELVASITSAGSTNYADSVKGRFTISRDNAKITVYLLMNSLKPEDTEVYYCNKRRAYGYYLFDYWGQGTQVTVSS,high polyreactivity
4,QVQLVESGGGLVQAGGRLRLSCAASGRIFSTYAMGWYRQAPGKQRQLVAAINKSGGSTYYADSVKGRFTISRDTAKNTVYLQMNSLKPEDTAVYYCAADQSYPKRLPSFEYWGQGTQVTVSS,low polyreactivity
5,QVQLVESGGGLVQAGGRLRLSCAASGRIFTYYVMGWYRQAPGKERELVASISGSGGRTYYADSVKGRFTISRDNAKNTVYLQMNSLKPEDTAVYYCATRLYKRTRTITYGYWGQGTQVTVSS,high polyreactivity
6,QVQLVESGGGLVQAGGRLRLSCAASGRIFYNYAMGWYRQAPGKERELVAAISGSGGSTYYADSVKGRFTISRDNAKNTVYLQMNSLKPEDTAVYYCSTSGPQYYSRNFDYWGQGTQVTVSS,low polyreactivity
7,QVQLVESGGGLVQAGGRLRLSCAASGRIFYNYAMGWYRQAPGKERELVASINFSGTRTYYADSVKGRFTISRDYAKNHVYLQMNSLKPEDTAVYYCAARQAHGYYYWGQGTQVTVSS,high polyreactivity
8,QVQLVESGGGLVQAGGRLRLSCAASGRIGPNVMGWYRQPPGKERELVAAISRRGGSTYYADSVKGRFTISRDNAKNTVYLQMNSLKPEDTAVYYCAKDLYTLAVKGGDYWGQGTQVTVSS,high polyreactivity
9,QVQLVESGGGLVQAGGRLRLSCAASGRTFAVYDMGWYIQAPGKERELVAAITYGGGRTYYADSVKGRFTISRDYAKNTVYLQMISLKPEDTSVYYCAADYYGTDYDYWGQGTQVTVSS,low polyreactivity
10,QVQLVESGGGLVQAGGRLRLSCAASGRTFEGYAMAWYRQAPGKERELVAAISGSSGSTYYADSVKGRFTISRDNAKNTVYLQMNSLKPEDTAVYYCNADYDWPGGSDYWGQGTQVTVSS,low polyreactivity
11,QVQLVESGGGLVQAGGRLRLSCAASGRTFIPYAMGWYRQAPGNERELVAAIRNGGSTNYADSVKGRFTISRDIAKNTVYLQMNSLKPEDTAVYYCNADLPVYVDYINGCYGYWGQGTQVTVSS,low polyreactivity
12,QVQLVESGGGLVQAGGRLRLSCAASGRTFPGYDMGWYRQAPGKERELVAAITRSGGSTYYADSVKGRFTISRDNAKNTVYLQMNSLKPEDTAVYYCATERHFYYSTFYYWGQGTQVTVSS,high polyreactivity
13,QVQLVESGGGLVQAGGRLRLSCAASGRTFYYYAMGWYRQAPGKERELVASITYRGTRTNYADSVKGRFTISRDNAKNTVYLQMNILKPEDTAVYSCNAEVYTGYGYWGQGTQVTVSS,high polyreactivity
14,QVQLVESGGGLVQAGGRLRLSCAASGRTIDHYAMGWYRQAPGKERELVAAISTTGGSTYYADSVKGRFTISRDNAKNTVYLQMNSLKPEDTAVYYCAARGLRTGGYWGQGTQVTVSS,high polyreactivity
15,QVQLVESGGGLVQAGGRLRLSCAASGRTIGVYAMGWYRQAPGKERELVAAISWSGGTTYYADSVKGRFTISRDNAKNTVYLQMNSLKPEDTGVYYCAADGEYPHSEDFEYWGQGTQVTVSS,low polyreactivity
16,QVQLVESGGGLVQAGGRLRLSCAASGRTLGANAMGWYRQAPGKERELVAAITDSGGSTYYADSVKGRFTISRDNAKNTVYLQMNSLKPEDTAVYYCAAKQAYSSTYVWPIFDYWGQGTQVTVSS,low polyreactivity
17,QVQLVESGGGLVQAGGRLRLSCAASGRTLYRYVMVWYRQAPWKERELVAAISATAGSTYYADSVKGRFTISRDNAKNTVYLQMNSLTPEDTAVYYCAAEGYTLWYWLEFEYWGQGTQVTVSS,high polyreactivity
18,QVQLVESGGGLVQAGGRLRLSCAASGSIFAGYVMGWYRQAPGKERELVAAISKSGGSTYYADSVKGRFTISRDNAKNTVSLQMNSLKPEDTAVYYSAKDHYYVDYDYWGQGTQVTVSS,high polyreactivity
19,QVQLVESGGGLVQAGGRLRLSCAASGSIFDYNGMGWYRQAPGKERELVATITLSTARTYYADSVKGRFTISRDNAKNTVYLQMNSLKPEDTAVYYCATRYPKFRRRNYWGQGTQVTVSS,high polyreactivity
20,QVQLVESGGGLVQAGGRLRLSCAASGSIFFAYAMGWYRQAPGKERELVAAITSGVSTNYADSVKGRFTISRDNAKNTVYLQMNSLKPEDTAVYYCNADFDYGFDAGVAVQVVIHDYWGQGTQVTVSS,low polyreactivity
21,QVQLVESGGGLVQAGGRLRLSCAASGSIFGRNAMGWYRAAPGKERELVAAITGSTYYADSVKGRFTSSRDNAKNTVYLQMNSLKPEDTAVYYCNADYDVGWTYDTEYNYWGQGTQVTVSS,low polyreactivity

row,Sequence,polyreactivity (PSR sort gate)
1,QVQLVESGGGLVQAGGRLRLSCAASGSIFIGYAMGWYRPAPGKERELVAAISGSGSSTYYADSVKGRFTISRDNAKNTVYLQMNSLKPEDTAVYYCAARTYSRFTASTYYYWGQGTQVTVSS,high polyreactivity
2,QVQLVESGGGLVQAGGRLRLSCAASGSIFIYYAMGWYRQAPGKERELVAAISNGGSTNYADSVKGRFTISRDNAKNTVYLQMNSLKPEDTAVYYCNTDWGYFHGVRAYLGYGYWGQGTQVTVSS,low polyreactivity
3,QVQLVESGGGLVQAGGRLRLSCAASGSIFPANAMGGSRQAPGKERELVAGISERGSSTYYADSVKGRFTISRDNAKNTVYLQMNSLKPEDTAVYYCAADDVGRYWSSTHNWARGDYWGQGTQVTVSS,low polyreactivity
4,QVQLVESGGGLVQAGGRLRLSCAASGSIFQSYAMGWYRQAPGKERELVAVITGGGGSTYYADSVKGRFTISRDNAKNTVYLQMNSLKPEDTAVYYCAARPVTSYAYGSWGQGTQVTVSS,low polyreactivity
5,QVQLVESGGGLVQAGGRLRLSCAASGSIFRFYAMGWYRQAPGKERELVASISSGGSTYYADSVKGRFTISRDNAKNTVYLKLNSLKAEDTAVYYCAHGFAQYGVDLDPGDYDYWGQGTQVTVSS,low polyreactivity
6,QVQLVESGGGLVQAGGRLRLSCAASGSIFRRYAMGWYRQEPGKERELVAVITTDGSTYYADSVKGRFTISRDNAKNTVYLQMNSLKPEDTAVYYCAAEVYVIGDSGYDYWGQGTQVTVSS,low polyreactivity
7,QVQLVESGGGLVQAGGRLRLSCAASGSIFSRNAMGWDRQAPGQERELVAAITRSGGRTYYADSVKGRCTLSRDNAKTTVYLQMNSLKPEDTAVYYCNALASQEYDYWGQGTQVTVSS,high polyreactivity
8,QVQLVESGGGLVQAGGRLRLSCAASGSIFSRYAMGWYRQAPGKERELVAAITSRGSGTNYADSVKGRFTISRDNAKNTVYLQMNSLKPEDTAVYYCNAARLPRLGWPTPYLYDYWGQGTQVTVSS,high polyreactivity
9,QVQLVESGGGLVQAGGRLRLSCAASGSIFSYNAMGWYRQAPGKEREVVATISWSGGSTYYADSVKGPFTISRDYAKNTVFLQMNSLKPEDTGGYSCAARKYGQRYRRDYWGQGTQVTVSS,low polyreactivity
10,QVQLVESGGGLVQAGGRLRLSCAASGSIFTYYVMGWYRQAPGKERELVAAITISGGSTYYADSVKGRFTISRDNAKNTVYLQMNRLNPEDTAVYYCAAEEVYYEADGFQNSYDYWGQGTQVTVSS,high polyreactivity
11,QVQLVESGGGLVQAGGRLRLSCAASGSIFVPNAMGWYRQALGKDRELVAAITYSGVDTYYADSVMGRFTISRDNAKNTVYLQMNSLKPEDTAVYYCAADNGRVGYDYWGQGTQVSVSS,low polyreactivity
12,QVQLVESGGGLVQAGGRLRLSCAASGSIFVYNALGWYRQAPGKQRELVAGITFIGGSTYYAESVKGRFTISRDNAKNTVYVQMNSRKPEDTAVYYCNKFPVSPPSYYWGQGTQVTVSS,low polyreactivity
13,QVQLVESGGGLVQAGGRLRLSCAASGSIFYYNVMGWYRQAHGKQRELVAAITWSGGTTYYADSVKGRFTISRDNAKNTVYLQMNSLKPEDTAVYYCIAASPYSWGYRRGYLGQGTQVTVSS,high polyreactivity
14,QVQLVESGGGLVQAGGRLRLSCAASGSIISYYAMGWYRQAPGKERELVATITSSGSTYADSVKGRFTISRDNAKNTVYLQMNSLKPEDTAVYYCNADSGYSEYWGVDVAYDYWGQGTQVTVSS,low polyreactivity
15,QVQLVESGGGLVQAGGRLRLSCAASGSILNFYAMGWYRQAPGKEREFVASISWDGASTYYADSVKGRFTISRDNAKNTVYLPMNSLKPEDTAVYYCAATRYYSFWGQGTQVTVSS,low polyreactivity
16,QVQLVESGGGLVQAGGRLRLSCAASGSNFGLNALGWYRQAPGKERELVAAINSDADTYYADSVKGRFTISRDNAKNTVYLQMNSQKPADTAVYYCAADYYWDPFDSNFGHVPQEYESWGQGTQVTVSS,low polyreactivity
17,QVQLVESGGGLVQAGGRLRLSCAASGSTFDPNAEGWYRPAPGKARELVAVIDSGDGTTYYADSVKGRVTISRDKAKNTVYLQMNSLKPEDTAVYYCAAEFHWWYAGYDYGYWGQGTQVTVSS,low polyreactivity
18,QVQLVESGGGLVQAGGRLRLSCAASGSTFDVYAMGWYRQAPGKERELVAVINTSGTRTYYADSVKGRFTISRDNAKNTVYLQRNSLKPEDTAVYYCNAGGHLEMNYWGQGTQVTVSS,low polyreactivity
19,QVQLVESGGGLVQAGGRLRLSCAASGSTFEVNAMGWYRQAPGKERELVAAISSSAGDTYYADSVKGRFTISRDNAKYTVYLQMNSLKPEDTAVYYCAADYGYSPFDYWGQGTQVTVSS,low polyreactivity
20,QVQLVESGGGLVQAGGRLRLSCAASGSTFIDYAMGWYIHAPGKERELVAAITWDGSSTYYADSVKGRFTISRDNAKNTVYLQMNSLKPEDTAVYYCATDYAGQYPVDGQPIHDYWGQGTQVTVSS,low polyreactivity
